According to the nanobody polyreactivity screen of Harvey et al. (2022):

Assay: yeast display, Sf9 membrane polyspecificity reagent, FACS + sequencing; frameworks hold sequencing errors
Summary of the method: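 A nanobody's polyreactivity label depends on the gate it was sorted from. Yeast display cells were stained with 10% biotinylated, detergent-solubilized Sf9 membrane reagent for 1 hour at 4 °C, enriched on streptavidin microbeads and sorted by FACS. The low and high (top ~1%) gates were set on anti-HA fluorescence for expression and streptavidin fluorescence for reagent binding.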

Sequence | polyreactivity (PSR sort gate)
QVQLVESGGGLVQAGGSLRLSCAASGRTIRYYVMGWYRQAPGKERELVAAISSGGRTNYADSVKGRFTISRDNAKNTVYLQMNSLKPEDTAVYYCAADLWYYWTATRAFDYWGQGTQVTVSS | high polyreactivity
QVQLVESGGGLVQAGGSLRLSCAASGRTISWYAMGRYRQAPGKERELVAAITYSGGSTYYAVSVKGRFTISRDNAKNTVYLQMNSLKPEDTAVYYCAADGRVREYDYWGQGTQVTVSS | high polyreactivity
QVQLVESGGGLVQAGGSLRLSCAASGRTITWYAMGWYRQAPGTERELVAAITRTGRTTYADSVKGRFTISRDNAKNTVYLQMNSLKPEDTAVYYCAARRWGEYDYWGQGTQVTVSS | high polyreactivity
QVQLVESGGGLVQAGGSLRLSCAASGRTIVFNAMGWYRQAPGKERELVAAITKNGGSTYYADSVKGRFTISRDNAKNTVYLQMNSLKPEDTAVYYCAVRRGYPFFYWGQGTQVTVSS | low polyreactivity
QVQLVESGGGLVQAGGSLRLSCAASGRTIYFNVMGWYRQAPGKERELVAAISGGGSTNYADSVKGRYTISRDNAKNTVYLQMNSLKPEDTAVYYCATGYYSGLIDDYWGQGTQVTVSS | low polyreactivity
QVQLVESGGGLVQAGGSLRLSCAASGRTIYFYTMGWYRQAPGKERELVATAITSGGCTNYAVSVKGRFTISRDNAKNTVHLLMNSRKPEDTAVYYCAAVPTEFGNRLEYDYWGQGTQVTVSS | low polyreactivity
QVQLVESGGGLVQAGGSLRLSCAASGRTIYQYAMGWYRQAPGKERELVAAISRGGSTNYADSLKGRFTISRDNAKNTVFLQMHSLKPEDTAVYYCASWYKFLSLKRLYERDYWGQGTQVTVSS | high polyreactivity
QVQLVESGGGLVQAGGSLRLSCAASGRTKQRKAMGWYRQAPGKERELVAAISSSGGSTYYADSVKGRFTISRDNAKNTVYLQMNSLKPEDTAVYYCAADGQFDDYYSLPFYYDYWGQGTHVTVSS | high polyreactivity
QVQLVESGGGLVQAGGSLRLSCAASGRTLARNAMGWYRQAPGKERELVASINGRTTRTYYADSVKGRFTISRDNAKNTVYLQMNSLKPEDTAVYYCAADPPGYVYGKRYYWGQGTQVTVSS | high polyreactivity
QVQLVESGGGLVQAGGSLRLSCAASGRTLASNAMGWYRQAPGKERELVAAINRGGSTYYADSVKGRFTISRDNAKNTVYLQMNSLKPEDTAVYYCRFYSYWSWLGREYDYWGQGTQVTVSS | low polyreactivity
QVQLVESGGGLVQAGGSLRLSCAASGRTLDWNAMGWYRPAPGKERELVAAISWSGDSTYYADSVKGRFTISRDNAKNTVYLQMNSLKPEDTAVYYCAAAGVYYGVRGTTYAFDYWGQGTQVTVSS | low polyreactivity
QVQLVESGGGLVQAGGSLRLSCAASGRTLEDYVMGWYRQAPGKERELVAAIYWSGVSTYYADSVKGRFTISRDNAKNTVYLQMNSMKPEDTAVYYCAKDSTADELTGFDYWGQGTQVTVSS | low polyreactivity
QVQLVESGGGLVQAGGSLRLSCAASGRTLEIYTMGLNRQAPGKERELVAAISGGSTYYADSVKGRFTISRDNSKNTVYLQMNSLKPEDTAVYYCAARPYVFRYHRWTVDWRYDYWGQGTQVTVSS | low polyreactivity
QVQLVESGGGLVQAGGSLRLSCAASGRTLEQYAMGWYRQAPGKERELVAAINKSGARTYYADSVKGRFTISRDNAKNSVYLQMNSQKPEDTAVYYCNTVGPSYLFDYWGQGTQVTVSS | high polyreactivity
QVQLVESGGGLVQAGGSLRLSCAASGRTLFRYAMGWYRQAPGKERELVAAISRSGGTTYYADSVKGRFTISRDNAKNTVYLQMNSLKPEDTAVYYCAARGRYKDGYRMDYWGQGTQVTVSS | high polyreactivity
QVQLVESGGGLVQAGGSLRLSCAASGRTLFVYAMGWYRQAPGKEREFVAAIRWRGGSTYYADSVKGRFTISRDNAKNTVYLQMNSLKPEDTAVYYCAADTYWVKTDYLYGYWGQGTQVTVSS | high polyreactivity
QVQLVESGGGLVQAGGSLRLSCAASGRTLGIYAMGWYIQAPGKERELVADISRDSSTYYADSVKGRFTISRDNAKNTVYLQMNSLKPEDTAVYYCNADQTPRDVTDWWYDYDYWGQGTQVTVSS | low polyreactivity
QVQLVESGGGLVQAGGSLRLSCAASGRTLGTNAMGWYRQARGKERELVAAISRTGTSTYYADSVKGRFTISRDNAKNTVYLQMNSLKPEDTAVYYCAVRVPVSIPPGNYYYWGQGTQVTVSS | high polyreactivity
QVQLVESGGGLVQAGGSLRLSCAASGRTLGTYAMGWYRQAPGKERELVAAITSGGSTYYADSVKGRFTISRDNAKNTVYLQMNSLKPEDTAVYYRATYSYYYWGQGTQVTVSS | low polyreactivity
QVQLVESGGGLVQAGGSLRLSCAASGRTLIAYAMGWYRQAPGKEREFVAAIRADDGRTYYADSVKGRFTISRDNAKNTVYLQMNSLKPEDTAVYYCATKADKRYGFGYWGQGTQVTVSS | high polyreactivity
QVQLVESGGGLVQAGGSLRLSCAASGRTLIAYAMGWYRQAPGKEREFVAAIRADDGRTYYADSVKGRFTISRDNAMNTVYLQMNSLKPDDTAVYYCATKADKRYRFGYWGQGTQVTVSS | high polyreactivity
QVQLVESGGGLVQAGGSLRLSCAASGRTLKYNAMGWYRQAPGKERELVAAISYSGSSTYYADSVKGRFTISRDNAKNTVYLQMNSLKPEDTAVYYCNTARPTAAYDYWGQGTQVTVSS | low polyreactivity

Sequence | polyreactivity (PSR sort gate)
QVQLVESGGGLVQAGGSLRLSCAASGRTLLKYAMGWYRQATGKEREFVAAITRSGSSTYYADSVKGRFTISRDNAKNTVYLQMNSLKPEDTAVYYCAARLYRVTLDYWGQGTQVTVSS | low polyreactivity
QVQLVESGGGLVQAGGSLRLSCAASGRTLLLNTMGWYRQAPGKERELFAAISWRDGSTYYADSVKRRFTISRDNAKITVYLQMNSLIPEDTAVYYCNARLSGRSPYDLRFDYWGQGTQVTVSS | low polyreactivity
QVQLVESGGGLVQAGGSLRLSCAASGRTLLPNALGWYRQAPGKERELVASIRDGGDTNYADSVKGRFTISRDNAKKTVYLQMNSLQPEDTGVYYCNADWWAYYSFGHEYWGLGTQVTVSS | low polyreactivity
QVQLVESGGGLVQAGGSLRLSCAASGRTLQIYVMGWYRQAPGKERELVASITGRGGSTYYADSVKGRFTISRDNAKNTVYLQMNSLKPEDTAVYYCARRYYRLDYWGQGTQVTVSS | high polyreactivity
QVQLVESGGGLVQAGGSLRLSCAASGRTLRKYAMGWYRQAPGKERELVAAITTSGGSTYYADSVKGRFTISRDNAKNTVYLQMNSLKPEDTAVYYCNAARYYAYIGDYWGQGTQVTVSS | high polyreactivity
QVQLVESGGGLVQAGGSLRLSCAASGRTLRLNAMGWYRQAPGKQREFVDAISRSGDSTYYADSVKGRFTISRDNAKNTVYLQMNSLKPEDTAVYYCNAKYYRYPCAYRYDYWGQGTQVTVSS | high polyreactivity
QVQLVESGGGLVQAGGSLRLSCAASGRTLRQYAMGRYRQAPGKERELVAAISRGGSTTYADSVKGRFTISRDNAKNTVYLQMNSLKPEDTAVYYCNAELNWYYYIHLDYWGQGTQVTVSS | low polyreactivity
QVQLVESGGGLVQAGGSLRLSCAASGRTLRSYTMGWYRQAPGKERELVAAINWNGGTTYYADSVKGRFTISRDNAKNTVYLQMNSLKAEDTAVYYCAAESSRWHTYWYSLSNLGRGYWGQGTQVTVSS | high polyreactivity
QVQLVESGGGLVQAGGSLRLSCAASGRTLRTYTMGWYRQAPGKERELVAAISSSDDSTYYADSVKGRFTISRDNAKNTVYLQMNSLKPEDTAVYYCAKDGLYPTEYGYWGQGTQVTVSS | high polyreactivity
QVQLVESGGGLVQAGGSLRLSCAASGRTLRYNAMGWDRQAPGKERELVAAISTRGTNTYYADSVKGRFTISRDNAKNTVYLQMNSLKPEDTAVYYCAAKKGGYPYSVYSGTRHNYWGQGTQVTVSS | high polyreactivity
QVQLVESGGGLVQAGGSLRLSCAASGRTLSRYTMGWYIQAPGKERELVAGITRSGGSTYYPDSEKGRFTISRDNAKNTVYLQMNSLKPEDTAVYYCAARWHFLTSSRFDYWGQGTQVTVSS | high polyreactivity
QVQLVESGGGLVQAGGSLRLSCAASGRTLSWYAMGWYRQAPGKEWEFVAAITSSGASTYYADSVKGRFTISRDNANNTVYLQMNSLKPEDTAVYYCNAAWRRVWFNYCGQGTQVTVSS | high polyreactivity
QVQLVESGGGLVQAGGSLRLSCAASGRTLTGYAMGWYRQAPGKERELVAAITWRDSTYYADSVKGRFTISRDNAKNSVYLQMNSLKPEDTAVYYCNADNATYFVYEFNYWGQGTQVTVSS | low polyreactivity
QVQLVESGGGLVQAGGSLRLSCAASGRTLTYNVMGWYRPAPGKERELVASISATGGSTYYADSVKGRFTISRDNAKNTVYLQMNSLKPEDTAVYSCAARGYRYHYATRYDYWGQATQVTVSS | high polyreactivity
QVQLVESGGGLVQAGGSLRLSCAASGRTLVHYAMGWYRQAPGKERELVAAISYSGGRTYYADSVKGRFTISRDNAKNTVYLQMNSLKPEDTAVYYCAAEIVYPAIGGYGYWGQGTQVTVSS | low polyreactivity
QVQLVESGGGLVQAGGSLRLSCAASGRTLVLNMGWYRPAPGKERELVATINSGGSTYYADSVKGRFTISRDNAKNTVYLQMNSLKPEDTAVYYCAVLSSDGKFDYWGQGTQVTVSS | low polyreactivity
QVQLVESGGGLVQAGGSLRLSCAASGRTLVYYAMGSYRQSPGKERELVAAISWSGSRTYYADSVKGRFTISRDNAKNTVYLQMNSLKPEDTAVYYCATLTFRTNGTMDYWGQGTQVTVSS | high polyreactivity
QVQLVESGGGLVQAGGSLRLSCAASGRTLWGNAMGWYRQAPGKERELVAAISRSGYTNYADSVKGRFTISRDNAKNTVYLLMNRLKPEDTAVYYCNARSTRSRTYQSYDYWGQGTQVTVSS | high polyreactivity
QVQLVESGGGLVQAGGSLRLSCAASGRTLWYYTMGWYRQAPGKERELVADITRGTSTNYADSVKGRFTISRDNAKNTVYLQMNSLKPEDTAVYHCNRAHGRSRYSRDYDSWGQGTQVTVSS | low polyreactivity
QVQLVESGGGLVQAGGSLRLSCAASGRTLYFNAMGWYRQAPGKERALVADISIGGSTYSADSVKGRFTISRDNAKNTVYLQMNSLKPEDSAVYYCAANAHYYVSYAWSVDVDYWGQGTQVTVSS | high polyreactivity
QVQLVESGGGLVQAGGSLRLSCAASGRTLYGYAMGWYRQAPGKERELVAAISKRGTRTYHADSVKGRFTISRDNAKNTVYLQMNSLKPEDTAVYFCGARYPPDEATMEYWGQGTQVTVSS | high polyreactivity
